From paper PMC4313731 (Chemistry & biology, 2013) come the findings set out here.

Residue numbers refer to the chain shown, from its start. In names and notes the source's numbering stands.

The target in one data set is PhnY (Sinorhizobium meliloti, UniProt Q92UV7). In words: X-ray crystal structure of ternary complex with NAD+, […] Å. Format: binding. The conditions noted are these: NAD+ bound; active site, non-covalent.
Substrate in data set [1]: O=CCCP(=O)(O)O
In words: steady-state kinetics, NADP+ reduction monitored. It is filed as biochemical, Streptococcus mutans. The conditions noted are these: saturating NADP+, 50 mM HEPES pH 8.0, 5 mM DTT.

Substrate in data set [2]: O=CC(O)COP(=O)(O)O
Nature of the data set: steady-state kinetics, NADP+ reduction monitored. Format: biochemical, Streptococcus mutans. The conditions noted are these: racemic G3P, saturating NADP+, 50 mM HEPES pH 8.0, 5 mM DTT.

Substrate in data set [3]: O=CCP(=O)(O)O
In words: steady-state kinetics, NAD+ reduction monitored. Format: biochemical, Sinorhizobium meliloti. The note with it: saturating NAD+, 50 mM HEPES pH 7.5, 10 mM MgSO4, 30 °C.

Substrate in data set [4]: O=CCCP(=O)(O)O
In words: steady-state kinetics, NAD+ reduction monitored. The conditions noted are these: 50 mM HEPES pH 7.5, 10 mM MgSO4, 30 °C. Format: biochemical, Sinorhizobium meliloti.

PhnY, sequence (Q92UV7 whole entry): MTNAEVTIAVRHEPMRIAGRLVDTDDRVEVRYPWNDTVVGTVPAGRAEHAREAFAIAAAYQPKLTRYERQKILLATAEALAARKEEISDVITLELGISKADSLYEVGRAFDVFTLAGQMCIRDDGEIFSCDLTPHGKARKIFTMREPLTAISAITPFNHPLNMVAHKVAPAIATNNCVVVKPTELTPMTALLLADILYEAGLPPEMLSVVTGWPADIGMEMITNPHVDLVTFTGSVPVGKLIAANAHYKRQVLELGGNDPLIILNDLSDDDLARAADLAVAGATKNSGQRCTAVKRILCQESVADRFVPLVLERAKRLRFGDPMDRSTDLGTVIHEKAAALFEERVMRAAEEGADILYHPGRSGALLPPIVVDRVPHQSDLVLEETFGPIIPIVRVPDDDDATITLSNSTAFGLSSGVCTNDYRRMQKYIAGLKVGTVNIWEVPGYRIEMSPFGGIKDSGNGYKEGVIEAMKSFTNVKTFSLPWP

For `O=C(O)CP(=O)(O)O` [PnA], at PhnY, the “X-ray crystal structure of ternary complex with NAD+, 2.07 Å” value is “cocrystal structure of PhnY in complex with NAD^+ and PnA shows clear and continuous density”.

B1: GAPDH (Streptococcus mutans UA159) (protein)
chain: MTKQYKNYVNGEWKLSENEIKIYEPASGAELGSVPAMSTEEVDYVYASAKKAQPAWRSLSYIERAAYLHKVADILMRDKEKIGAVLSKEVAKGYKSAVSEVVRTAEIINYAAEEGLRMEGEVLEGGSFEAASKKKIAVVRREPVGLVLAISPFNYPVNLAGSKIAPALIAGNVIAFKPPTQGSISGLLLAEAFAEAGLPAGVFNTITGRGSEIGDYIVEHQAVNFINFTGSTGIGERIGKMAGMRPIMLELGGKDSAIVLEDADLELTAKNIIAGAFGYSGQRCTAVKRVLVMESVADELVEKIREKVLALTIGNPEDDADITPLIDTKSADYVEGLINDANDKGAAALTEIKREGNLICPILFDKVTTDMRLAWEEPFGPVLPIIRVTSVEEAIEISNKSEYGLQASIFTNDFPRAFGIAEQLEVGTVHINNKTQRGTDNFPFLGAKKSGAGIQGVKYSIEAMTTVKSVVFDIK
The Km is the substrate concentration at which the rate is half of its maximum. As a reminder, the kcat is the maximal rate divided by the concentration of active sites. For the molecule B1, in data set [1], the Km is reported as 1500 ± 300 µM and the kcat was 0.038 ± 0.022 s⁻¹. For the same molecule, in data set [2], the Km amounted to 25 ± 7 µM and the kcat is 22 ± 2 s⁻¹.

B2: PhnY (Sinorhizobium meliloti 1021; R447A) (protein)
chain: MTNAEVTIAVRHEPMRIAGRLVDTDDRVEVRYPWNDTVVGTVPAGRAEHAREAFAIAAAYQPKLTRYERQKILLATAEALAARKEEISDVITLELGISKADSLYEVGRAFDVFTLAGQMCIRDDGEIFSCDLTPHGKARKIFTMREPLTAISAITPFNHPLNMVAHKVAPAIATNNCVVVKPTELTPMTALLLADILYEAGLPPEMLSVVTGWPADIGMEMITNPHVDLVTFTGSVPVGKLIAANAHYKRQVLELGGNDPLIILNDLSDDDLARAADLAVAGATKNSGQRCTAVKRILCQESVADRFVPLVLERAKRLRFGDPMDRSTDLGTVIHEKAAALFEERVMRAAEEGADILYHPGRSGALLPPIVVDRVPHQSDLVLEETFGPIIPIVRVPDDDDATITLSNSTAFGLSSGVCTNDYRRMQKYIAGLKVGTVNIWEVPGYAIEMSPFGGIKDSGNGYKEGVIEAMKSFTNVKTFSLPWP
B2: in data set [3], the Km came out at 150 ± 20 µM and the kcat is 0.076 ± 0.003 s⁻¹.

B3: PhnY (Sinorhizobium meliloti 1021; N158A) (protein)
chain: B2 chain with N158A, A447R
With B3, in data set [3], the Km was 29 ± 9 µM and the kcat is 0.010 ± 0.001 s⁻¹.

B4: PhnY (Sinorhizobium meliloti 1021) (protein)
chain: B2 chain with A447R
As for B4, in data set [4], the Km came to 3300 ± 100 µM and the kcat stood at 1.5 ± 0.1 s⁻¹.

B5: PhnY (Sinorhizobium meliloti 1021; R290A) (protein)
chain: B2 chain with R290A, A447R
As to B5, in data set [3], the Km worked out at 5.1 ± 0.6 µM and the catalytic constant (kcat) is 0.12 ± 0.003 s⁻¹.

B6: PhnY (Sinorhizobium meliloti 1021; R108A) (protein)
chain: B2 chain with R108A, A447R
In the case of B6, in data set [3], the Km was found to be 9.7 ± 0.8 µM and the turnover number (kcat) came to 0.051 ± 0.001 s⁻¹.
